Source: the nanobody polyreactivity screen of Harvey et al. (2022)

Assay: yeast display, Sf9 membrane polyspecificity reagent, FACS + sequencing; frameworks hold sequencing errors
How it was run: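 A nanobody's polyreactivity label depends on the gate it was sorted from. Yeast display cells were stained with 10% biotinylated, detergent-solubilized Sf9 membrane reagent for 1 hour at 4 °C, enriched on streptavidin microbeads and sorted by FACS. The low and high (top ~1%) gates were set on anti-HA fluorescence for expression and streptavidin fluorescence for reagent binding.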

| Sequence | polyreactivity (PSR sort gate) |
| --- | --- |
| QVQLVESGGGLVQAGGSLRLSCAASGYTFGHYAMGWYRQAPGKERELVAVNTSGGSTNYADSVKGRFTISRDNAKNTVYLQMNSLKPEDTAVYDCAADLYFYYVWIRDYWGQGTQVTVSS | low polyreactivity |
| QVQLVESGGGLVQAGGSLRLSCAASGYTFGIYTLGWYRQAPGKERELVADISSTGTTKYADSVKGRFTISRDNAKYTVYLQMNSLKPEDTAVYYCAVRPFWYRMDYWGQGTQVTVSS | low polyreactivity |
| QVQLVESGGGLVQAGGSLRLSCAASGYTFGSYAMGWYRQAPGKERELVAAIRGSGGSTYYADSVKGRFTISRDNAKNTVYLQMNSLKPEDTAVYYCATSVRRGGRQLYNYWGQGTQVTVSS | high polyreactivity |
| QVQLVESGGGLVQAGGSLRLSCAASGYTFGSYAMGWYRQAPGKERELVAAISGGGSTNYADSVKGRFTISRDNAKNTVYLQMNSLKPEDTAVYYCAAYPYLYPLRFEEYDHWGQGTQVTVSS | low polyreactivity |
| QVQLVESGGGLVQAGGSLRLSCAASGYTFGTYAMGWYRQAPGKERELVAAITWRGGSTYYADSVKGRFTISRDNAKYTFYLQMNSLIPEDTAVYYCNADIKQRSDRYDYWGQGTQVTVSS | high polyreactivity |
| QVQLVESGGGLVQAGGSLRLSCAASGYTFGTYDMGWYRQAPGKERELVAAISIGGSTNYADSVKGRFTISRDNAKNTVYLQMNSLKREDTAVYYCAAEVNVGTLLLSVIVEDGDYWGQGTQVTVSS | low polyreactivity |
| QVQLVESGGGLVQAGGSLRLSCAASGYTFGTYDMGWYRQAPGKERELVAAISIGGSTNYADSVKGRFTISRDNEKNTVYLQMNSLKPVDTAVYYCAAEVNVGTLLLSVIVEDGDYWGQGTQVTVSS | low polyreactivity |
| QVQLVESGGGLVQAGGSLRLSCAASGYTFGVYVMGWYRQAPGKERELVAAISGSTYYAYSVKGRFTISRDNAKNTVYLQMNSLKPEDTAVYYCAAESYFFSPRTREKFDYWGQGTQVTVSS | low polyreactivity |
| QVQLVESGGGLVQAGGSLRLSCAASGYTFGYYTMGWYRQAPGKERELVASIDSGGGTNYADSVKGRFTISRDNAKNTVYLQMNSLKPEDTEVYYCAAEYPLYWVDDFESGWRYYYWGQGTQVTVSS | low polyreactivity |
| QVQLVESGGGLVQAGGSLRLSCAASGYTFIYYAMGWYRQAPGKERELVATISIDGSTNYADSVKGRFTISRDNAKYSVYLQMNSLKREDTAVYYCNRERYEDYDYWGQGTQVTVSS | high polyreactivity |
| QVQLVESGGGLVQAGGSLRLSCAASGYTFKTYAMGWYIQAPGKERELVAAISGSGGSTYYADSVKGRFTISRDNAKNTVYLQMNSLKPEDTEVYFCAATNWWGTEYDYWGQGTQVTVSS | high polyreactivity |
| QVQLVESGGGLVQAGGSLRLSCAASGYTFLANAMGWYRQAPGKERELVAAISSGGTTYYADSVKGRFTISRDNAKNTVYLQMNSLKPEDTAVYYCAAKDTTVFYYDDDYWGQGTQVTVSS | low polyreactivity |
| QVQLVESGGGLVQAGGSLRLSCAASGYTFLAYAMGWYRQAPGKERELVAAISSGGRTYYADSVKGRFTISRDNAKNTVYLQMHSLKREDTAVYYCAAYPLRYRQYWGFVYWGQGTQVTVSS | high polyreactivity |
| QVQLVESGGGLVQAGGSLRLSCAASGYTFLDYAMGWYRQAPGKERELVAAINSGGSTYYADSEKGRFTISRDNAKNTVYLQMNSLKPEDTAVYYCAVDPPYSYSLSRYGYWGQGTQVTVSS | low polyreactivity |
| QVQLVESGGGLVQAGGSLRLSCAASGYTFNKYAMGWYRQATGKGRELVATIRNGGNTYYADSVKGRFTISRDNAKITVYFQMNSLKPEDTAVYYCAATVRGVGYRYYYWGQGTQVTVSS | high polyreactivity |
| QVQLVESGGGLVQAGGSLRLSCAASGYTFPDYAMGWYRQAPGKERELVAAFRSGGGTNYADSVKGRFTISRDNAKNTVYLQMNSLKPEDTAVYYCAKEWAGGLYDYWGQGTQVTVSS | low polyreactivity |
| QVQLVESGGGLVQAGGSLRLSCAASGYTFPFYTMGWYRQAPGKERELVAAINSGGSTYYADSVKGRFTISRDNAKNTVYLQMNSLKPEDTAVYYCGAGRHSEDNYWGQGTQVTVSS | high polyreactivity |
| QVQLVESGGGLVQAGGSLRLSCAASGYTFPRYTMGWYRQAPGKERELVAAINWSGGSTYYADSVKGRFTISRDNAKNTVYLQMNSLKPEDTAVYYCNKAYVSRYDYWGQGTQVTVSS | high polyreactivity |
| QVQLVESGGGLVQAGGSLRLSCAASGYTFPTYAMGWYRQAPGKERELVAAISIDDGITYYADSVKGRFTISRDNAKNTVYLQMNSLKPEDTAVYYCAADVGIEYDYWGQGTQVTVSS | high polyreactivity |
| QVQLVESGGGLVQAGGSLRLSCAASGYTFQWYDMGWYRQAPGKERELVASISWRGGSTYYADSVKGRFSISRDNATITVSLQMNSLKPEDTAVYYCAASLWPDYEYDYWGQGTQVTVSS | low polyreactivity |
| QVQLVESGGGLVQAGGSLRLSCAASGYTFRFNAMGWYRQAPGKEREFVAAIDFGGAGTYYADSVKGRFTISRDNAKNNVYLQMHSLKPEDTAVYYCNARDGVTSEFDYWGQGTQVTVSS | low polyreactivity |
| QVQLVESGGGLVQAGGSLRLSCAASGYTFRRYAMGWYRQAPGKERELVAAITSRGGSTYYADSVKGRFTISRDNAKNTVYLQMNSLKPEDTAVYYCAADASAYSVLTRDYWGQGTQVTVSS | high polyreactivity |

| Sequence | polyreactivity (PSR sort gate) |
| --- | --- |
| QVQLVESGGGLVQAGGSLRLSCAASGYTFRRYAMGWYRQAPGKERELVAGITRTGNTNYADSVKGRFTISRDNAKNTVYLQMNSLKPEDTAVYYCARDLGGYKRLYDYWGQGTQVTVSS | high polyreactivity |
| QVQLVESGGGLVQAGGSLRLSCAASGYTFRSNTMGWYRQAPGKERELVAAISGRGSSTYYADSVKGRFTISRDNAKNTVYLQMNSLKPEDTAVYYCAAQSKYYQYYSWGQGNQVTVSS | high polyreactivity |
| QVQLVESGGGLVQAGGSLRLSCAASGYTFRSYAMGWYRQAPGKERELVAGIDGSGGTTYYADSVKGRFTISRDNAKNTVYLQMNSLKPEDTAVYYCAAEAYKHGVWDYDYWGQGTQATVSS | low polyreactivity |
| QVQLVESGGGLVQAGGSLRLSCAASGYTFRVYTMGWYRQAPGKERELVAAISRRGSRTYYADSVKGRFTISRDNAKNSVYLQMNSLKPEDTAVYYCAAGIPYPDDYWGQGTQVTVSS | high polyreactivity |
| QVQLVESGGGLVQAGGSLRLSCAASGYTFRVYTMGWYRQAPGKERELVAAISRRGSRTYYADSVKGRFTISRDNAKNTVYLQMNSLKPEDTAVYYCAAGIPYPDDYWGQGTQVTVSS | high polyreactivity |
| QVQLVESGGGLVQAGGSLRLSCAASGYTFRYYAMGGYRQAPGKERELVADINSGDITNYADSVKGRFTISRDNAKNTVYLQMNSQKPEDTAVYYCAPRTFSLYDYWGQGTQVTVSS | low polyreactivity |
| QVQLVESGGGLVQAGGSLRLSCAASGYTFRYYAMGWYRQAPGKERELVAAINWSGGSTYYADSVKGRFTISRDNAKNTVYLQMNSLKPEDTAVYYCAADPDGDLDIDYDYWGQGTQVTVSS | low polyreactivity |
| QVQLVESGGGLVQAGGSLRLSCAASGYTFRYYAMGWYRQAPGKERELVARITGRAGSTYYADSVKGRFTISRDNAKNTVYLQMNSLKPEDTAVYYCAASIREGFYWGQGTQVTVSS | high polyreactivity |
| QVQLVESGGGLVQAGGSLRLSCAASGYTFSGYAMGWYRQAPGKERELVAAISGSSTRTYYADSVKGRFTITRDYAKNTVYFQMNSLKPEDTAVYYCAARFRHGGPYKYGYWGHGTQVTVSS | high polyreactivity |
| QVQLVESGGGLVQAGGSLRLSCAASGYTFSHYAMGWYRQAPGKERELVAGITWSGGSTYYADSVKGRFTISRENSKNTVYLQMNSLKPEDTSVYYCAAKYYWYYSYSGIPLFDYWGQGTQVTVSS | low polyreactivity |
| QVQLVESGGGLVQAGGSLRLSCAASGYTFSRYAMGLYRQAPGKERELVAAISHSAGRTYYADSVKGRFTISRDNAKNTVYLKMNSLKPEDTAVYYCATVLYSVPRYNYWGQGSQVTVSS | high polyreactivity |
| QVQLVESGGGLVQAGGSLRLSCAASGYTFSRYAMGWYRQAPGKERELVAAITGRGGSTYYADSVKGRFTISRDNAKNTVYLQMNSLKPEDTAVYYCAAPFGWRPLPISKVTSDYWGQGTQVTVSS | high polyreactivity |
| QVQLVESGGGLVQAGGSLRLSCAASGYTFSYYAMGWYRQAPGKERELVAAISWSGGSTYYADSVKGRFTISRDNAKNTVYLQMNSLKPEDTAFYYCAAKPWRGTLMRYGYWGQGTQVTVSS | high polyreactivity |
| QVQLVESGGGLVQAGGSLRLSCAASGYTFTIYAMGWYRQAPGKERELVAAITGRGGRTNYADSVKGRFTISRDNAKNTVYLQMNSLKPEDTAVYYCAKGGRSSSPRYRFDYWGQGTQVTVSS | high polyreactivity |
| QVQLVESGGGLVQAGGSLRLSCAASGYTFWDYAMGWYRQAPGKEREFVAGISFSDGGTYYADSVKGRFTITRDNAKNTVYLQMNSLKPEDTAVYYCAATYPYSWVYSGYYYWGQGTQVTVSS | low polyreactivity |
| QVQLVESGGGLVQAGGSLRLSCAASGYTFWFYAMGWYRQAPGKEREFVATISRSGGSTYYADSVKGRFTISRDNAKNTVYLQMNSLKPEDTAVYYCNARGPRSHRYDYWGQGTQVTVSS | high polyreactivity |
| QVQLVESGGGLVQAGGSLRLSCAASGYTFWQYAMGWYRQAPGKERELVATITSRGGSTYYADSVKGRFTISRDNAKNTVYLQMNSLKPEDTAVYYCNARRRYSTRRSDYWGQGTQVTVSS | high polyreactivity |
| QVQLVESGGGLVQAGGSLRLSCAASGYTFYANAMGWYRQAPGKEREFVASITWSGGSTYYADSVKGRFTISRDNAKNTVYLQMNSLKPEDTAVYYCADESWFKYDYWGQGTQVTVSS | low polyreactivity |
| QVQLVESGGGLVQAGGSLRLSCAASGYTFYDYAMGWYRQAPGKERELVARINGGGGTNYADSVKGRFTISRDNAKNTVYLQMNSLKPEDTAVYYCAADVYFRQGDVDLLRYDYWGQGTQVTVSS | low polyreactivity |
| QVQLVESGGGLVQAGGSLRLSCAASGYTFYFYAMGCYRQAPGKERELVAAITGGGTTSYADSVKGRFTISRDNAKNTVYLQMNSLKPEDTAVYYCNVLFADKSDYWGQGTQVTVSS | low polyreactivity |
| QVQLVESGGGLVQAGGSLRLSCAASGYTFYFYAMGWYRQAPGKERELVASITWRGGSTYYADSVKGRFTISRDNAKNTVYLQMNSLKPEDTAVYYCAKQVYYIYDYWGQGTQVTVSS | low polyreactivity |
